Consider three molecules from patent publication US20240197879A1 (Memorial Sloan Kettering, published 2024).

Test [1] addresses T1, His tag recombinant human full-length CD33 (human, UniProt P20138 18-259).
T1 construct: Commercial recombinant protein (R&D Systems / Acro Biosystems); also called huCD33-His; human CD33-His; not shown: 6xHis tag
Kind of test: BLI (Octet Red96e): antibody captured on anti-huFc biosensor, huCD33-His as analyte, 1:1 Langmuir fit. The procedure:
Lead and reference antibodies were produced recombinantly with a human IgG1 constant region. Selectivity was tested using His tag recombinant human full-length CD33 or CD33-IgC, mouse full-length CD33, and cynomolgus full-length CD33 proteins. Recombinant proteins at 5 μg/mL were captured by pre-blocked Ni-NTA plates. Candidate antibodies were added at 10 μg/mL in triplicate and detected using horseradish peroxidase (HRP)-conjugated anti-human Fc antibody. To assess the binding to cell-surface-bound CD33, 3T3 cells overexpressing CD33, as well as the U937 AML cell line, were used. U937 CD33-knockout (CD33KO) or NALM6 cells were included as negative controls. NALM6, U937 CD33⁺, and CD33KO cells were blocked with human IgG Fc for 20 minutes on ice. The recombinant antibodies were then serially diluted starting at 100 μg/mL concentration and added for 30 minutes on ice. Alexa Fluor 647-conjugated goat anti-human F(ab′)₂ was added to cells for 30 minutes on ice, washed and analyzed by flow cytometry, and normalized to secondary-only staining (MFI ratio). EC₅₀ values were determined by non-linear regression. The binding affinity and epitope binning to human CD33 protein was measured by biolayer interferometry (BLI) using an Octet Red96e. All experiments were carried out using kinetic buffer (PBS pH 7.4, 0.01% BSA, 0.002% Tween-20). […]
(In BLI a coated tip is dipped into the sample, and binding shifts an interference pattern.)

Test [2] addresses His tag recombinant human full-length CD33 (human) (UniProt P20138). Kind of test: BLI epitope binning: human CD33-His on anti-penta-His biosensor, pre-saturated with H195 (self-competition).
The target is the same in test [3]. Kind of test: BLI epitope binning: human CD33-His on anti-penta-His biosensor, reference biosensor (buffer), no saturating mAb.
Test [4] addresses human CD33 on cells (3T3 cells over-expressing CD33; U937, OCi-AML3, HL60, Set2 AML cells with endogenous CD33) (human) (UniProt P20138). In words: flow cytometry on U937 AML cells with endogenous CD33 (U937-CD33), Alexa Fluor 647 anti-human F(ab')2 detection, non-linear regression. For orientation: In flow cytometry, cells or beads pass a laser one at a time.
Test [5] has the same target. In words: flow cytometry on 3T3 cells over-expressing CD33 (3T3-CD33), Alexa Fluor 647 anti-human F(ab')2 detection, non-linear regression.
The target in test [6] is His tag recombinant human full-length CD33 (human) (UniProt P20138). Kind of test: BLI (Octet Red96e): antibody captured on anti-huFc biosensor, huCD33-His as analyte, 1:1 Langmuir fit.
Sequence of His tag recombinant human full-length CD33 (human) (P20138 18-259): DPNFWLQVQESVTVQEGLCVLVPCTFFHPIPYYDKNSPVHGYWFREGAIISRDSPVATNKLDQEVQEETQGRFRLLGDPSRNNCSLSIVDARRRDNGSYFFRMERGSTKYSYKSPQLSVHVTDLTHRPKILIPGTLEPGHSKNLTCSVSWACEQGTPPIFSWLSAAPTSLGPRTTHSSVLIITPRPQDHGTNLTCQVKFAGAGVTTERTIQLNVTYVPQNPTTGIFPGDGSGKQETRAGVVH
Test [7] shares this target. Kind of test: BLI epitope binning: human CD33-His on anti-penta-His biosensor, pre-saturated with 4B2A.
Test [8] shares this target. Kind of test: BLI epitope binning: human CD33-His on anti-penta-His biosensor, pre-saturated with 3P14.

T1 sequence (P20138 18-259): as above
Sequence of human CD33 on cells (3T3 cells over-expressing CD33; U937, OCi-AML3, HL60, Set2 AML cells with endogenous CD33) (human) (P20138 18-364 limits assumed): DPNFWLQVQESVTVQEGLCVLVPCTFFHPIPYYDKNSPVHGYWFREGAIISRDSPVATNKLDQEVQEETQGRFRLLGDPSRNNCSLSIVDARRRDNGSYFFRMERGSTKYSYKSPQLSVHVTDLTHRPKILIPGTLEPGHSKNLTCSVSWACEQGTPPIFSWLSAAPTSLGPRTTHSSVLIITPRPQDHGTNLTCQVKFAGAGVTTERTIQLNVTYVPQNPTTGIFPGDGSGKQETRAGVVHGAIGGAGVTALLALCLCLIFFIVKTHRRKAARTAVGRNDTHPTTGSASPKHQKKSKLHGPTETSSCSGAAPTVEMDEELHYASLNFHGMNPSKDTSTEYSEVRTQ

B1: 3P14 (antibody, V domains shown)
VH: EVQLLESGGGLVQPGGSLRLSCAASGFTFSTYAMSWVRQAPGKGLEWVSAISGRGGSTYYTDSVKGRFTISRDNSKNTVSLQMNSLRAEDTAVYYCAGRGDYYYYYGMDVWGQGTTVTVSA
VL: DIVMTQSPLSSPVTLGQPASFSCRSSQSLVYSDGNTYLSWLQQRPGQPPRLLIYKISNRFSGVPDRFSGSGAGTDFTLKISRVEAEDVGVYYCMQSTQFPHTFGQGTKLEIK
notes: Hybridoma-derived mAb from AlivaMab mice; also called TDI-Y-006
Usually Kd stands for the concentration at which binding is half-saturated. In the case of B1, the Kd in test [1] turned out to be 12.1 nM.

B2: H195 (lintuzumab) (antibody, part only; not given: constant regions, human IgG1, V domains shown, not shown: another chain or arm of the molecule)
VH: QVQLVQSGAEVKKPGSSVKVSCKASGYTFTDYNMHWVRQAPGQGLEWIGYIYPYNGGTGYNQKFKSKATITADESTNTAYMELSSLRSEDTAVYYCARGRPAMDYWGQGTLVTVSS
VL: DIQMTQSPSSLSASVGDRVTITCRASESVDNYGISFMNWFQQKPGKAPKLLIYAASNQGSGVPSRFSGSGSGTDFTLTISSLQPDDFATYYCQQSKEVPWTFGQGTKVEIK
Usually EC50 stands for the concentration needed to bring the measured effect to its halfway point. A higher EC50 goes with a less potent agent. As usually defined, the kon is the second-order rate constant of association. Consider B2, for which the binding of competing mAb, % of reference biosensor in test [2] worked out at 5%; in test [3], 100%; in test [7], 100%; in test [8] it was 78%. For the same molecule, the figures for the EC50 in test [4] and in test [5] were 0.4 nM and 4.8 nM, respectively. Also, the Kd in test [6] was found to be 1.22 nM. Also, in test [6], the kon turned out to be 358000 M⁻¹ s⁻¹.

B3: 4B2A (antibody, V domains shown)
VH: EVHLLESGGGLVQPGGSLRLSCAASGFIFSSNAMSWVRQAPGKGLEWVSAISGYGGNTYYADSVKGRFTISRDNSKNTLYLQMNSLRAEDTAVYYCAKWGTYIVGATGDYWGQGTLVTVSS
VL: QSALTQPPSASGSPGQSVTISCTGTSNDVGGYNYVSWYQQHPGKAPKLLIYEVSKRPSGVPDRFSGSQSGNTASLTVSGLQAEDEADYYCSSYAGSNNWVFGGGTKLTVL
notes: also called TDI-Y-007
In the case of B3, in test [1], the Kd came to 12.9 nM.
